Source: patent US7351689

T1: zcyto20 (IL-28A), human (human) (UniProt Q8IZJ0)
T1 sequence: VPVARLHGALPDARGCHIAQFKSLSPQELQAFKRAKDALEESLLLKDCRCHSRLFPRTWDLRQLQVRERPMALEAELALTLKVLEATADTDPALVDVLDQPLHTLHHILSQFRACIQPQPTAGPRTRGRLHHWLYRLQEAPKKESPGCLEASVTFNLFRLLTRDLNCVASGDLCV

T2: zcyto24 (mouse IL-28) (mouse) (UniProt Q4VK74)
T2 sequence: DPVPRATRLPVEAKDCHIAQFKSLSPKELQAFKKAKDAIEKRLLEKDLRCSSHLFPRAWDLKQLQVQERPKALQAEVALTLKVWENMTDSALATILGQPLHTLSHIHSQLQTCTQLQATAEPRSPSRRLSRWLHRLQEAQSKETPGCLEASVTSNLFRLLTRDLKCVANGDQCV


Legend:
Assay in all cases: cell-based or functional assay
[1] = target: T1, zcyto20 (IL-28A), human (human)
[2] = target: zcyto21 (SEQ ID NO:15) (human) (UniProt Q8IU54)
Chain of zcyto21 (SEQ ID NO:15) (human) (Q8IU54 other isoform, or with tags, fused parts or gaps): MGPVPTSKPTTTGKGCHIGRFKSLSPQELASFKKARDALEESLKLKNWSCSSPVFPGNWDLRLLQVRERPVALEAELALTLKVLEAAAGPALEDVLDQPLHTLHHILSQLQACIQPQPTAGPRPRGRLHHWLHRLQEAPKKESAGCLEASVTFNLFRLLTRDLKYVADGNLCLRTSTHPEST

[3] = target: T2, zcyto24 (mouse IL-28) (mouse)
[4] = target: human IL-28 receptor on transfected 293 HEK cells (IL-28 receptor alpha subunit with endogenous CRF2-4) (human)
Chain of human IL-28 receptor on transfected 293 HEK cells (IL-28 receptor alpha subunit with endogenous CRF2-4) (human) (Q8IU57 whole entry, chain 1 of 2): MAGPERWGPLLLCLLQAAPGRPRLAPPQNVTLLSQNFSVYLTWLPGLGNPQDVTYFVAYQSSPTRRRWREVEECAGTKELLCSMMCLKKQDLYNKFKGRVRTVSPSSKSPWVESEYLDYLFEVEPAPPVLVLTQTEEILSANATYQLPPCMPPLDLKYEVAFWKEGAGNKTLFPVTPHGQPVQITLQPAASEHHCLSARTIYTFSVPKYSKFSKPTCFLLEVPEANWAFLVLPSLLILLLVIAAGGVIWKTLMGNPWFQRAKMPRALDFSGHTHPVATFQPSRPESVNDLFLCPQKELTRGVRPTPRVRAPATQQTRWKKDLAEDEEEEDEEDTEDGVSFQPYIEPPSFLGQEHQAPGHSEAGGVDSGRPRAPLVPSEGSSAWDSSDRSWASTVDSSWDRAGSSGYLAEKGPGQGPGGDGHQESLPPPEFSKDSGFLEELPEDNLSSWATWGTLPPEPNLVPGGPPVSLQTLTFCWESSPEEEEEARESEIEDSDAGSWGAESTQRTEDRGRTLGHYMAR
Chain of human IL-28 receptor on transfected 293 HEK cells (IL-28 receptor alpha subunit with endogenous CRF2-4) (human) (Q08334 whole entry, chain 2 of 2, further chain): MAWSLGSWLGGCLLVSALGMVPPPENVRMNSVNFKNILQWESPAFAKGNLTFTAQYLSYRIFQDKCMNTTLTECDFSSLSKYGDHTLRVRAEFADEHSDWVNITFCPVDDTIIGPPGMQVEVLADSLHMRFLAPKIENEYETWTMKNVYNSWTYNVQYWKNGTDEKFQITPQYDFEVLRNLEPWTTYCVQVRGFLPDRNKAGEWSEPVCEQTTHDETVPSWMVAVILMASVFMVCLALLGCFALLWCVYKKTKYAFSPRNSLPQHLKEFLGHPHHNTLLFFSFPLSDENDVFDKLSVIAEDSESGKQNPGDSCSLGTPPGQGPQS

Percent Inhibition of Ligand-induced Interferon Stimulated Response Element (ISRE) Signaling by Soluble Receptors (10 ng/ml ligand, 10 micrograms/ml soluble receptor) [1]	Percent Inhibition of Ligand-induced Interferon Stimulated Response Element (ISRE) Signaling by Soluble Receptors (10 ng/ml ligand, 10 micrograms/ml soluble receptor) [2]	Percent Inhibition of Ligand-induced Interferon Stimulated Response Element (ISRE) Signaling by Soluble Receptors (10 ng/ml ligand, 10 micrograms/ml soluble receptor) [3]	ISRE Signaling of Transfected 293 Cells Following Class II Cytokine Stimulation (Fold Induction), ISRE-Luc./IL-28R, IL-28B 125 ng/ml (fold induction) [4]	Binder
91%	103%	89%	–	murine zcytor19-Ig homodimer (Fc fusion, mouse, UniProt Q8CGK5 21-227, looked up, not shown: a dimerising Fc or GST) RPRLAPPRNVTLFSQNFTVYLTWLPGLGSPPNVTYFVTYQSYIKTGWRPVEHCAGIKALVCPLMCLKKLNLYSKFKGRVQAASAHGRSPRVESRYLEYLFDVELAPPTLVLTQMEKILRVNATYQLPPCMPSLELKYQVEFWKEGLGSKTLFPDTPYGQPVQIPLQQGASRRHCLSARTVYTLIDIKYSQFSEPSCIFLEAPGDKRA
–	–	–	104	IL-28B (SEQ ID NO: 6) (ligand) VPVARLRGALPDARGCHIAQFKSLSPQELQAFKRAKDALEESLLLKDCKCRSRLFPRTWDLRQLQVRERPVALEAELALTLKVLEATADTDPALGDVLDQPLHTLHHILSQLRACIQPQPTAGPRTRGRLHHWLHRLQEAPKKESPGCLEASVTFNLFRLLTRDLNCVASGDLCV

Continued, binder first:

Binder	Percent Inhibition of Ligand-induced Interferon Stimulated Response Element (ISRE) Signaling by Soluble Receptors (10 ng/ml ligand, 10 micrograms/ml soluble receptor) [1]	Percent Inhibition of Ligand-induced Interferon Stimulated Response Element (ISRE) Signaling by Soluble Receptors (10 ng/ml ligand, 10 micrograms/ml soluble receptor) [2]	Percent Inhibition of Ligand-induced Interferon Stimulated Response Element (ISRE) Signaling by Soluble Receptors (10 ng/ml ligand, 10 micrograms/ml soluble receptor) [3]	ISRE Signaling of Transfected 293 Cells Following Class II Cytokine Stimulation (Fold Induction), ISRE-Luc./IL-28R, IL-28B 125 ng/ml (fold induction) [4]
human zcytor19-Fc/human CRF2-4-Fc heterodimer (Fc fusion, from a related filing, not shown: a dimerising Fc or GST, left off: a dimerising Fc or GST) chain 1: RPRLAPPQNVTLLSQNFSVYLTWLPGLGNPQDVTYFVAYQSSPTRRRWREVEECAGTKELLCSMMCLKKQDLYNKFKGRVRTVSPSSKSPWVESEYLDYLFEVEPAPPVLVLTQTEEILSANATYQLPPCMPPLDLKYEVAFWKEGAGNKTLFPVTPHGQPVQITLQPAASEHHCLSARTIYTFSVPKYSKFSKPTCFLLEVPEANWA chain 2: MVPPPENVRMNSVNFKNILQWESPAFAKGNLTFTAQYLSYRIFQDKCMNTTLTECDFSSLSKYGDHTLRVRAEFADEHSDWVNITFCPVDDTIIGPPGMQVEVLADSLHMRFLAPKIENEYETWTMKNVYNSWTYNVQYWKNGTDEKFQITPQYDFEVLRNLEPWTTYCVQVRGFLPDRNKAGEWSEPVCEQTTHDETVPS	16%	16%	47%	–
human zcytor19-Fc homodimer (Fc fusion, not shown: a dimerising Fc or GST) RPRLAPPQNVTLLSQNFSVYLTWLPGLGNPQDVTYFVAYQSSPTRRRWREVEECAGTKELLCSMMCLKKQDLYNKFKGRVRTVSPSSKSPWVESEYLDYLFEVEPAPPVLVLTQTEEILSANATYQLPPCMPPLDLKYEVAFWKEGAGNKTLFPVTPHGQPVQITLQPAASEHHCLSARTIYTFSVPKYSKFSKPTCFLLEVPEANWA	92%	45%	90%	–
human CRF2-4-Fc homodimer (Fc fusion, from a related filing, left off: a dimerising Fc or GST) MVPPPENVRMNSVNFKNILQWESPAFAKGNLTFTAQYLSYRIFQDKCMNTTLTECDFSSLSKYGDHTLRVRAEFADEHSDWVNITFCPVDDTIIGPPGMQVEVLADSLHMRFLAPKIENEYETWTMKNVYNSWTYNVQYWKNGTDEKFQITPQYDFEVLRNLEPWTTYCVQVRGFLPDRNKAGEWSEPVCEQTTHDETVPS	80%	79%	82%	–
